# Data taken from PMC12802937.
# Legend:
# [1] = target: Lge1-CT E278K/E282K (budding yeast) (UniProt Q02796); test: SPR; Lge1-CT immobilised on a CM5 chip, Bre1-LR flown over; Biacore 8K, 25°C, 20 mM HEPES (pH 7.5), 200 mM sodium chloride, 0.02% Tween 20
# [2] = target: Lge1-CT D312K (budding yeast) (UniProt Q02796); test: as above
# [3] = target: Lge1-CT D287K (budding yeast) (UniProt Q02796); test: as above
# [4] = target: Lge1-CT (Lge1 residues 261–332), intein-chitin binding domain (CBD) tag construct (budding yeast) (UniProt Q02796); test: as above
# [5] = target: Bre1-LR K506E/K510E (budding yeast) (UniProt Q07457); test: ITC; Lge1-CT (50–60 μM) injected into Bre1-LR (15 μM); 25°C, 20 mM TRIS (pH 7.5), 300 mM sodium chloride
# [6] = target: Bre1-LR K506E/K510E (budding yeast) (UniProt Q07457); test: ITC; Lge1-CT (50–60 μM) injected into Bre1-LR (15 μM); 25°C, 20 mM TRIS (pH 7.5), 200 mM sodium chloride
# [7] = target: Bre1-LR I397K (budding yeast) (UniProt Q07457); test: as above
substance,measurement,setting,value
"Bre1-LR (Bre1 residues 227–700, LBD and RING domains), 6× histidine tag (from UniProt Q07457 227-700) (domain or fragment)",Kd,[1],95.6 nM
same,Kd,[2],25.3 nM
same,Kd,[3],145 nM
Bre1-LR D389K/D390K (from UniProt Q07457 227-700) (domain or fragment),Kd,[4],75.5 nM
Bre1-LR I397K (from UniProt Q07457 227-700) (domain or fragment),Kd,[4],40.7 nM
"Lge1-CT (Lge1 residues 261–332), intein-chitin binding domain (CBD) tag construct (from UniProt Q02796 261-332) (domain or fragment)",Kd,[5],6720 nM
same,dH,[5],-80 kcal/mol
same,stoichiometry N,[5],0.474
same,Kd,[6],41.9 nM
same,dH,[6],-35.2 kcal/mol
same,stoichiometry N,[6],0.383
same,Kd,[7],122 nM
same,dH,[7],-41.3 kcal/mol
same,stoichiometry N,[7],0.18
